Blank lines part the entries; values can stand above or below the substance they belong to.
Experiments:
Test in all cases: non-reducing SDS-PAGE of immunoprecipitates
[1] = target: recombinant rat fibronectin, A form (with EIIIA only), expressed in WEHI231 cells (rat)
[2] = target: recombinant rat fibronectin, B form (with EIIIB only), expressed in WEHI231 cells (rat)
[3] = target: recombinant rat fibronectin, O form (no EIIIB, EIIIA or V segment), expressed in WEHI231 cells (rat)
[4] = target: recombinant rat fibronectin, V form (with the V segment only), expressed in WEHI231 cells (rat)

stoichiometry N [1]: 2
Substance: recombinant rat fibronectin, A form (with EIIIA only), expressed in WEHI231 cells (natural protein)

stoichiometry N [2]: 2
Substance: recombinant rat fibronectin, B form (with EIIIB only), expressed in WEHI231 cells (natural protein)

percent in the dimeric form [3]: 50%
stoichiometry N [3]: 2
Substance: recombinant rat fibronectin, O form (no EIIIB, EIIIA or V segment), expressed in WEHI231 cells (natural protein)

percent in the dimeric form [4]: 90%
stoichiometry N [4]: 2
Substance: recombinant rat fibronectin, V form (with the V segment only), expressed in WEHI231 cells (natural protein)

Reference: article PMC2116055
